Results: US20030087866

Target: T1, purified recombinant R2 protein, P11157
T1 chain: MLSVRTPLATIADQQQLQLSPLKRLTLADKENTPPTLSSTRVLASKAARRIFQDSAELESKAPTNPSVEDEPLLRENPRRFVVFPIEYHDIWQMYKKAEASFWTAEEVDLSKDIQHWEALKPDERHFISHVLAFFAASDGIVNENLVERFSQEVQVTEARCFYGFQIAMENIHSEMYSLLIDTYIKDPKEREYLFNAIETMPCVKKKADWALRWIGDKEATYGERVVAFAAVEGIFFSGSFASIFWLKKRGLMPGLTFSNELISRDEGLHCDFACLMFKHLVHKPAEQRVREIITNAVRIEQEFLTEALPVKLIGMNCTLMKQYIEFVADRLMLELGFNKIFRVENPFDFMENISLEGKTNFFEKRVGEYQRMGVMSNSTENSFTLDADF

B1: human Myc epitope-tagged mouse ribonucleotide reductase R1 protein (protein)
chain: EQKLISEEDLMHVIKRDGRQERVMFDKITSRIQKLCYGLNMDFVDPAQITMKVIQGLYSGVTTVELDTLAAETAATLTTKHPDYAILAARIAVSNLHKETKKVFSDVMEDLYNYINPHNGRHSPMVASSTLDIVMANKDRLNSAIIYDRDFSYNYFGFKTLERSYLLKINGKVAERPQHMLMRVSVGIHKEDIDAAIETYNLLSEKWFTHASPTLFNAGTNRPQLSSCFLLSMKDDSIEGIYDTLKQCALISKSAGGIGVAVSCIRATGSYIAGTNGNSNGLVPMLRVYNNTARYVDQGGNKRPGAFAIYLEPWHLDIFEFLDLKKNTGKEEQRARDLFFALWIPDLFMKRVETNQDWSLMCPNECPGLDEVWGEEFEKLYESYEKQGRVRKVVKAQQLWYAIIESQTETGTPYMLYKDSCNRKSNQQNLGTIKCSNLCTEIVEYTSKDEVAVCNLASLALNMYVTPEHTYDFEKLAEVTKVIVRNLNKIIDINYYPIPEAHLSNKRHRPIGIGVQGLADAFILMRYPFESPEAQLLNKQIFETIYYGALEASCELAKEYGPYETYEGSPVSKGILQYDMWNVAPTDLWDWKPLKEKIAKYGIRNSLLIAPMPTASTAQILGNNESIEPYTSNIYTRRVLSGEFQIVNPHLLKDLTERGLWNEEMKNQIIACNGSIQSIPEIPDDLKQLYKTVWEISQKTVLKMAAERGAFIDQSQSLNIHIAEPNYGKLTSMHFYGWKQGLKTGMYYLRTRPAANPIQFTLNKEKLKDKEKALKEEEEKERNTAAMVCSLENREECLMCGS
ribonucleotide reductase activity of the 9E10-immunoprecipitated R1 combined with purified recombinant R2: enzyme activity of 15.4±2.0 pmoles/mg/hr was detected when C1/mR1 cells (Table 1) were used as a source of recombinant R1
